Laboratory results reported in patent publication US20130149309A1.

Biological target: amyloid precursor protein C-terminal fragment (APP-CTF), P05067
Assay: co-immunoprecipitation, HEK293 cells, with 10 µM imatinib
Conditions: remark: other sources report otherwise

amyloid precursor protein C-terminal fragment (APP-CTF), P05067, sequence (P05067 672-770 limits assumed): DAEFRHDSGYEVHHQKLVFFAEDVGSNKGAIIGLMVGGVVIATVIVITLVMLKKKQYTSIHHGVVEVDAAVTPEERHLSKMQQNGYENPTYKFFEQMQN

B1: gSAP-16K-HA (16 KDa C-terminal fragment, amino acid sequence 733-854, of gSAP with a C-terminal HA tag), A4D1B5 733-854 (protein, human, UniProt A4D1B5 733-854, looked up, not shown: small tags and cut ends)
chain: RLMKDLDNTEKNEKLKFSIIVRLPPLIGQKICRLWDHPMSSNIISRNHVTRLLQNYKKQPRNSMINKSSFSVEFLPLNYFIEILTDIESSNQALYPFEGHDNVDAEFVEEAALKHTAMLLGL
  reduction of the interaction by imatinib (10 µM): 47%
